Results on 2 molecules are retold here after patent US20260201048A1 (NANJING BIOHENG BIOTECH, published 2026).

In experiment [1] the target is T1, Human IRP60 protein (Kactus) (human, UniProt Q9UGN4 18-178, limits assumed).
T1 construct: Commercial soluble protein used as the flow cytometry staining reagent; also called CD300a
T1 sequence (looked up): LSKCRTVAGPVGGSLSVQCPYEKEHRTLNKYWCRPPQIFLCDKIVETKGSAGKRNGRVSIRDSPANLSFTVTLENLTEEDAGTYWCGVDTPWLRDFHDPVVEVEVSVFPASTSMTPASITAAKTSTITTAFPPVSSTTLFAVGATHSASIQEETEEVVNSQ
Put plainly: flow cytometry; CAR19-60 T cells stained with soluble human IRP60 protein. From the text:
Using a flow cytometry, the expression of anti-CD 19 scFv in CAR-T cells was detected with FITC goat anti-human Fab (Thermo Fisher), and the expression of anti-IRP60 scFv was detected with Human IRP60 protein (Kactus). It can be seen that all the CARs in the CAR-T cells prepared in this example can be effectively expressed (FIG. 12), and the immunosuppressive molecule in CAR19-60 T cells can also be effectively expressed (FIG. 13).
(In flow cytometry, cells or beads pass a laser one at a time.)

Experiment [2] concerns the target T2, Human SIRPa protein (Acro) (human, UniProt P78324 31-370, limits assumed).
T2 construct: Commercial soluble protein used as the flow cytometry staining reagent; also called SIRPα; signal regulatory protein a
Put plainly: flow cytometry; CAR19-α T cells stained with soluble human SIRPa protein. From the text: Using a flow cytometry, the expression of anti-CD19 scFv in CAR-T cells was detected with FITC goat anti-human Fab (Thermo Fisher), and the expression of anti-SIRPa scFv was detected with Human SIRPa protein (Acro). It can be seen that all the CARs in the CAR-T cells prepared in this example can be effectively expressed (FIG. 7), and the immunosuppressive molecule in CAR19-α T cells can also be effectively expressed (FIG. 8).

T2 sequence (P78324 31-370 limits assumed): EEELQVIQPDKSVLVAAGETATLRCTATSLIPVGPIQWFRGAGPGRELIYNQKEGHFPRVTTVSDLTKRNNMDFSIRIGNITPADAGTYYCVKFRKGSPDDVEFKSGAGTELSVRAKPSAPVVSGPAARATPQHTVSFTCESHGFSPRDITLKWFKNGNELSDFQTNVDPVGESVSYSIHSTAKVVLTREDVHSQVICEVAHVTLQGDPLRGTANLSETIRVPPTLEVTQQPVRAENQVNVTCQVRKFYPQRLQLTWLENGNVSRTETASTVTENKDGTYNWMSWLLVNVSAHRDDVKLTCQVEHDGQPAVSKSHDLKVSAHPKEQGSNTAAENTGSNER

B1: immunosuppressive molecule targeting IRP60 (anti-IRP60 scFv, IgG4 hinge region, CD28 transmembrane region, CD28 co-stimulatory domain), expressed on CAR19-60 T … (scFv)
chain: EVQLQQSGAELVKPGASVKLSCKASGYTFTSYWMQWVKQRPGQGLEWIGEIDPSDSYTNYNQKFKGKATLTVDTSSSTTYMQLSSLTSEDSAVYYCARWGMAYGTSSYWYFDVWGTGTTVTVSSAGGGSGGGSGGGSDIQMTQTTSSLSASLGDRVTISCRASQDISNYLNWYQQKPDGTVKLLIYYTSRLHSGVPSRFSGSGSGTDYSLTISNLEQEDIATYFCQQGNTLPWTFGGGTKLEIKESKYGPPCPPCPFWVLVVVGGVLACYSLLVTVAFIIFWVRSKRSRLLHSDYMNMTPRRPGPTRKHYQPYAPPRDFAAYRS
notes: Membrane-anchored scFv on B2M-knockout T cells that also express a CD19 CAR; also called anti-IRP60 antibody
On to B1, for which the binding result in experiment [1] was “binds”.

B2: immunosuppressive molecule targeting SIRPa (anti-SIRPa scFv, IgG4 hinge region, CD28 transmembrane region, CD28 co-stimulatory domain), expressed on CAR19-α T … (scFv)
chain: EVQLVESGGGLVQPGGSLRLSCAASGFNISYYFIHWVRQAPGKGLEWVASVYSSFGYTYYADSVKGRFTISADTSKNTAYLQMNSLRAEDTAVYYCARFTFPGLFTGFFGAYLGSLDYWGQGTLVTVSSGGGSGGGSGGGSDIQMTQSPSSLSASVGDRVTITCRASQSVSSAVAWYQQKPGKAPKLLIYSASSLYSGVPSRFSGSRSGTDFTLTISSLQPEDFATYYCQQAVNWVGALVTFGQGTKVEIKRESKYGPPCPPCPFWVLVVVGGVLACYSLLVTVAFIIFWVRSKRSRLLHSDYMNMTPRRPGPTRKHYQPYAPPRDFAAYRS
notes: Membrane-anchored scFv on B2M-knockout T cells that also express a CD19 CAR; also called anti-SIRPa antibody
Turning to B2, in experiment [2], the binding result was “binds”.
